Assay results as given in patent US20220064648, “NOVEL X-[…] FOR THE USE IN DETECTION OF SNAP25” (Galderma Holding S.A., published 2022).
Substitutions are numbered along the chain they refer to.

B1: PEP 4.11 (ssDNA)
DNA: TTTTTAAGCCCACCCGAGTTCGTCCAGCGAACCACGCGCGTGTCGTGCCATG
B2: PEP 4.06 (ssDNA)
DNA: TTTTTAAGCCCACGAGAGTTCGATAGTCACAGATTGGCACCGTCGTGCCATG
B3: PEP 4.14 (ssDNA)
DNA: TTTTTAAGCCCACAAAAGTTCGGGCAGCACAGGTCGCTGAGGTCGTGCCATG
B4: PEP 4.18 (ssDNA)
DNA: TTTTTAACACGACTATTCTGTGAGTCTCGAACTGCGACAACGTGGGCCCATG
B5: PEP 4.12 (ssDNA)
DNA: TTTTTAACACGACAGCCCTGTGCAGGCCGAACGGCGTTGATGTCGTGCCATG
B6: PEP 4.22 (ssDNA)
DNA: TTTTTAAGCCCACGGTGCTGTGGAAGCCACAGTACAATGGAGTGGGCCCATG
B7: PEP 4.05 (ssDNA)
DNA: TTTTTAAGCCCACATAAGTTCGCAAGTCACAGCGATGTGATGTCGTGCCATG
B8: PEP 4.07 (ssDNA)
DNA: TTTTTAAGCCCACTCGTGTTCGCACACCGAACCACAAGCTAGTGGGCCCATG
B9: PEP 4.09 (ssDNA)
DNA: TTTTTAACACGACATATGTTCGACGGACACAGTGTGTGGCGGTCGTGCCATG
B10: PEP 4.13 (ssDNA)
DNA: TTTTTAAGCCCACGGCCGTTCGGCCACCACAGTGTGGCAGCGTCGTGCCATG
B11: PEP 4.21 (ssDNA)
DNA: TTTTTAAGCCCACGGGGCTGTGAGCAACGAACATTGGCACAGTCGTGCCATG
B12: PEP 4.04 (ssDNA)
DNA: TTTTTAAGCCCACGATCCTGTGCTTCGCACAGCTCGAGCTAGTGGGCCCATG
B13: PEP 4.20 (ssDNA)
DNA: TTTTTAAGCCCACACGTGTTCGGATCGCACAGTTATTGGCAGTCGTGCCATG
B14: PEP 4.17 (ssDNA)
DNA: TTTTTAAGCCCACGCCAGTTCGGTCAACGAACTACGGTGATGTGGGCCCATG
B15: PEP 4.10 (ssDNA)
DNA: TTTTTAAGCCCACAAGACTGTGCGTCGCACAGATTGGCATCGTCGTGCCATG
B16: PEP 4.08 (ssDNA)
DNA: TTTTTAACACGACCATTCTGTGCCAGCCGAACTCCGTGCTGGTGGGCCCATG
B17: PEP 4.03 (ssDNA)
DNA: TTTTTAACACGACAGGGGTTCGTAGGACACAGGTTGATGTTGTGGGCCCATG
B18: PEP 4.19 (ssDNA)
DNA: TTTTTAAGCCCACAAGCGTTCGGCTCTCATAGATCGTTGACGTGGGCCCATG
B19: PEP 4.16 (ssDNA)
DNA: TTTTTAACACGACAGACCTGTGATGGTCGAACTCCATGCATGTGGGCCCATG
B20: PEP 4.15 (ssDNA)
DNA: TTTTTAACACGACGTGACTGTGAGAGGCACAGTTTGGGGGCGTGGGCCCATG
B21: PEP 4.11 (ssDNA)
DNA: B1 DNA
modifications: W indole, X amine, Y phenol modified dU [19,20,23,43,46]
B22: PEP 4.09 (ssDNA)
DNA: B9 DNA
modifications: W indole, X amine, Y phenol modified dU [15,17,19,20,35,43,46]
B23: PEP 4.10 (ssDNA)
DNA: B15 DNA
modifications: W indole, X amine, Y phenol modified dU [19,25,34,35,40,43,46]
B24: SNAP.05 (ssDNA)
DNA: TTTTTAAGCCCACCCCGGTTCGCCAGACGAACCCCAACAGTGTGGGCCCATG
modifications: W indole, X amine, Y phenol modified dU [19,20]
B25: SNAP.07 (ssDNA)
DNA: TTTTTAACACGACCGGGCTGTGCACATCGAACACTGCGGTCGTCGTGCCATG
modifications: W indole, X amine, Y phenol modified dU [19,27,35,40,43,46]
B26: SNAP.02 (ssDNA)
DNA: TTTTTAAGCCCACACTGCTGTGAAGGACACAGCCCGACATCGTCGTGCCATG
modifications: W indole, X amine, Y phenol modified dU [16,19,40,43,46]
B27: SNAP.03 (ssDNA)
DNA: TTTTTAAGCCCACGGGTGTTCGACAGACACAGCAATACATCGTGGGCCCATG
modifications: W indole, X amine, Y phenol modified dU [17,19,20,36,40]
B28: SNAP.06 (ssDNA)
DNA: TTTTTAAGCCCACTTCGCTGTGAGCAACGAACATCGAGCAGGTCGTGCCATG
modifications: W indole, X amine, Y phenol modified dU [14,15,19,34,43,46]
B29: SNAP.04 (ssDNA)
DNA: TTTTTAAGCCCACCCACCTGTGGACATCGAACCTCACTGCAGTGGGCCCATG
modifications: W indole, X amine, Y phenol modified dU [19,27,34,38]
B30: SNAP.08 (ssDNA)
DNA: TTTTTAACACGACTGAAGTTCGCCAGGCGAACATCGTGGTGGTCGTGCCATG
modifications: W indole, X amine, Y phenol modified dU [14,19,20,34,40,43,46]
B31: PEP 2.01 (ssDNA)
DNA: TTTTTAACACGACGTTACTGTGGTCACCACAGGATGAGCCTGTCGTGCCATG
modifications: W indole, X amine, Y phenol modified dU [15,16,19,24,35,43,46]
B32: PEP 2.17 (ssDNA)
DNA: B31 DNA with C39G
modifications: W indole, X amine, Y phenol modified dU [15,16,19,24,35,43,46]
B33: PEP 2.18 (ssDNA)
DNA: B31 DNA with C27T
modifications: W indole, X amine, Y phenol modified dU [15Y,16W,19Y,24W,27X,35Y,43X,46Y]
B34: PEP 2.15 (ssDNA)
DNA: B31 DNA with C40T
modifications: W indole, X amine, Y phenol modified dU [15,16,19,24,35,40,43,46]
B35: PEP 2.02 (ssDNA)
DNA: TTTTTAAGCCCACATACGTTCGATGGTCACAGATTGGGCAAGTCGTGCCATG
modifications: W indole, X amine, Y phenol modified dU [15,19,20,24,27,34,35,43,46]
B36: PEP 2.11 (ssDNA)
DNA: TTTTTAAGCCCACTTGGCTGTGCACATCACAGAACAAGCAGGTGGGCCCATG
modifications: W indole, X amine, Y phenol modified dU [14,15,19,27]
B37: PEP 2.06 (ssDNA)
DNA: TTTTTAACACGACCGGCCTGTGGTCAGCACAGACTGTTGTGGTCGTGCCATG
modifications: W indole, X amine, Y phenol modified dU [19,24,35,38,40,43,46]
B38: PEP 2.08 (ssDNA)
DNA: TTTTTAAGCCCACGTTTGTTCGGTGGTCACAGCACGCCACGGTCGTGCCATG
modifications: W indole, X amine, Y phenol modified dU [15,16,17,19,20,24,27,43,46]
B39: PEP 2.12 (ssDNA)
DNA: TTTTTAACACGACTAGACTGTGTATCCCACAGGGCAATGTGGTCGTGCCATG
modifications: W indole, X amine, Y phenol modified dU [14,19,23,25,38,40,43,46]
B40: PEP 2.16 (ssDNA)
DNA: TTTTTAAGCCCACATAGGTTCGGTGGTCACAGTGTGGTGCGGTGGGCCCATG
modifications: W indole, X amine, Y phenol modified dU [15,19,20,24,27,35,38]
B41: PEP 2.03 (ssDNA)
DNA: TTTTTAACACGACGGTGCTGTGCTGGTCACAGCACGCGCGCGTCGTGCCATG
modifications: W indole, X amine, Y phenol modified dU [16,19,24,27,43,46]
B42: PEP 2.10 (ssDNA)
DNA: TTTTTAAGCCCACTGGCCTGTGGTCAGCGAACTGTGCGCTGGTGGGCCCATG
modifications: W indole, X amine, Y phenol modified dU [14,19,24,35,40]
B43: PEP 2.14 (ssDNA)
DNA: TTTTTAAGCCCACGGGTCTGTGGTCACCGAACGACGTGGCAGTGGGCCCATG
modifications: W indole, X amine, Y phenol modified dU [17,19,24]
B44: PEP 2.05 (ssDNA)
DNA: TTTTTAAGCCCACCCTACTGTGGTCACCACAGTGCAAGCCCGTCGTGCCATG
modifications: W indole, X amine, Y phenol modified dU [16,19,24,43,46]
B45: PEP 2.07 (ssDNA)
DNA: TTTTTAACACGACGTCGCTGTGGTCAACGAACAGATACAACGTCGTGCCATG
modifications: W indole, X amine, Y phenol modified dU [15,19,24,36,43,46]
B46: PEP 2.13 (ssDNA)
DNA: TTTTTAAGCCCACATGCCTGTGGTCATCGAACATTGGGCCGGTCGTGCCATG
modifications: W indole, X amine, Y phenol modified dU [15,19,24,27,34,35,43,46]
B47: PEP 2.09 (ssDNA)
DNA: TTTTTAACACGACATAGGTTCGCTGGTCACAGAATGTTGTGGTGGGCCCATG
modifications: W indole, X amine, Y phenol modified dU [15,19,20,24,27,35,38,40]
B48: PEP 2.04 (ssDNA)
DNA: TTTTTAACACGACATGGCTGTGGTCATCACAGCGCACCATTGTCGTGCCATG
modifications: W indole, X amine, Y phenol modified dU [15,19,24,27,40,43,46]

The binders below were run against SNAP25 Peptide 4 (PEP4, BoNT/A cleavage site region) (Homo sapiens, UniProt P60880 SEQ:1-24) (assay: ELONA). Conditions: label: biotin.
Chain of SNAP25 Peptide 4 (PEP4, BoNT/A cleavage site region) (P60880 174-197): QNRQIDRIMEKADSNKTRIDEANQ
For B1, the binding signal was 67 ELISA signal. B2 gave a binding signal of 131 ELISA signal. B3 was tested, and the binding signal was 37 ELISA signal. B4 showed a binding signal of 18 ELISA signal. B5 showed a binding signal of 61 ELISA signal. B6 was tested, and the binding signal was 17 ELISA signal. B7 gave a binding signal of 170 ELISA signal. B8 was tested, and the binding signal was 105 ELISA signal. For B9, the binding signal was 85 ELISA signal. With B10 the binding signal was 57 ELISA signal. In the case of B11, the binding signal is reported as 18 ELISA signal. Work on B12 yielded a binding signal of 186 ELISA signal. With B13 the binding signal was 18 ELISA signal. With B14 the binding signal was 24 ELISA signal. Binder B15 has a binding signal of 76 ELISA signal. Work on B16 yielded a binding signal of 94 ELISA signal. B17 was tested, and the binding signal was 202 ELISA signal. Binder B18 has a binding signal of 18 ELISA signal. Binder B19 has a binding signal of 35 ELISA signal. For B20, the binding signal was 37 ELISA signal.

What follows are binders tested against T1, SNAP25 full length (FLAG and MYC tagged) (Homo sapiens, UniProt P60880 SEQ:12-217) (assay: ELONA; full-length SNAP25). Conditions: tags: FLAG and MYC.
T1 sequence (P60880 whole entry, the tested form may be a part): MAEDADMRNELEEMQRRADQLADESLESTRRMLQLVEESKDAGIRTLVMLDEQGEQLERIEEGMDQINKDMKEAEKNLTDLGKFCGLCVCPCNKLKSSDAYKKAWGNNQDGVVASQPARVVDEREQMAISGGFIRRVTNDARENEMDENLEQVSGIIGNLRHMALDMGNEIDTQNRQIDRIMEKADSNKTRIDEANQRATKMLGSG
Source text: (§1) The data in Table 2 was collected by running direct ELISA assays on the 96 X-aptamers, elucidating their ability to bind SNAP25, SNAP25 fragments (PEP1, PEP2, PEP3, and PEP4), and a negative control. The X-aptamers were biotinylated and immobilized onto streptavidin-coated plates and were utilized as detection molecules. Higher numbers represent strong binding. The negative control peptide is a random peptide to measure the amount of binding that occurs to a random amino acid sequence.
With B21 the binding signal was 0 ELISA signal. For B22, the binding signal was 0 ELISA signal. Work on B23 yielded a binding signal of 4 ELISA signal.

Each binder was assayed against T1, SNAP25 full length (FLAG and MYC tagged) (assay: ELONA). Conditions: tags: FLAG and MYC.
Source text: as §1
B24 was tested, and the binding signal was 75 ELISA signal. In the case of B25, the binding signal is reported as 38 ELISA signal. With B26 the binding signal was 95 ELISA signal. B27 showed a binding signal of 92 ELISA signal. Binder B28 has a binding signal of 45 ELISA signal. With B29 the binding signal was 83 ELISA signal. In the case of B30, the binding signal is reported as 35 ELISA signal.

Target: T2, SNAP25 Peptide 2 (PEP2) (Homo sapiens, UniProt P60880 SEQ:1-37)
T2 chain: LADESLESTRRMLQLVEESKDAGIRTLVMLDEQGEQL
Assay: ELONA
Conditions: not given
Source text: as §1
With B31 the binding signal was 592 ELISA signal. B32 gave a binding signal of 30 ELISA signal. Work on B33 yielded a binding signal of 26 ELISA signal. With B34 the binding signal was 36 ELISA signal. B35 gave a binding signal of 394 ELISA signal. B36 showed a binding signal of 40 ELISA signal. B37 was tested, and the binding signal was 102 ELISA signal. With B38 the binding signal was 65 ELISA signal. B39 was tested, and the binding signal was 37 ELISA signal. For B40, the binding signal was 31 ELISA signal. B41 gave a binding signal of 221 ELISA signal. With B42 the binding signal was 43 ELISA signal. For B43, the binding signal was 36 ELISA signal. In the case of B44, the binding signal is reported as 159 ELISA signal. In the case of B45, the binding signal is reported as 65 ELISA signal. B46 showed a binding signal of 36 ELISA signal. Binder B47 has a binding signal of 46 ELISA signal. With B48 the binding signal was 190 ELISA signal.
